# Measurements from article PMC12876850 (Cell Death & Disease, 2026).
# B1: HA-tagged wild-type TGase 2 (enzyme, UniProt P21980 1-687, looked up)
# chain: MAEELVLERCDLELETNGRDHHTADLCREKLVVRRGQPFWLTLHFEGRNYEASVDSLTFSVVTGPAPSQEAGTKARFPLRDAVEEGDWTATVVDQQDCTLSLQLTTPANAPIGLYRLSLEASTGYQGSSFVLGHFILLFNAWCPADAVYLDSEEERQEYVLTQQGFIYQGSAKFIKNIPWNFGQFEDGILDICLILLDVNPKFLKNAGRDCSRRSSPVYVGRVVSGMVNCNDDQGVLLGRWDNNYGDGVSPMSWIGSVDILRRWKNHGCQRVKYGQCWVFAAVACTVLRCLGIPTRVVTNYNSAHDQNSNLLIEYFRNEFGEIQGDKSEMIWNFHCWVESWMTRPDLQPGYEGWQALDPTPQEKSEGTYCCGPVPVRAIKEGDLSTKYDAPFVFAEVNADVVDWIQQDDGSVHKSINRSLIVGLKISTKSVGRDEREDITHTYKYPEGSSEEREAFTRANHLNKLAEKEETGMAMRIRVGQSMNMGSDFDVFAHITNNTAEEYVCRLLLCARTVSYNGILGPECGTKYLLNLNLEPFSEKSVPLCILYEKYRDCLTESNLIKVRALLVEPVINSYLLAERDLYLENPEIKIRILGEPKQKRKLVAEVSLQNPLPVALEGCTFTVEGAGLTEEQKTVEIPDPVEAGEEVKVRMDLLPLHMGLHKLVVNFESDKLKAVKGFRNVIIGPA
# notes: transglutaminase 2, wild type, expressed from a TGM2 plasmid; also called HA-tagged wild-type TGM2; HA-tagged TGase 2; source: HEK-293, co-transfected, in lysate
# Molecular target: T1, FLAG-tagged GSK3β (UniProt P49841 1-420)
# T1 construct: glycogen synthase kinase-3β, expressed from a plasmid; also called FLAG-GSK3β; source: HEK-293, co-transfected, in lysate
# Assay: co-IP; HEK-293 co-transfected with HA-TGase 2 and FLAG-GSK3β at increasing TGase 2:GSK3β plasmid ratios; TGase 2-GSK3β and GSK3β-β-catenin association followed
# Settings: partners not purified
# T1 sequence (P49841 whole entry): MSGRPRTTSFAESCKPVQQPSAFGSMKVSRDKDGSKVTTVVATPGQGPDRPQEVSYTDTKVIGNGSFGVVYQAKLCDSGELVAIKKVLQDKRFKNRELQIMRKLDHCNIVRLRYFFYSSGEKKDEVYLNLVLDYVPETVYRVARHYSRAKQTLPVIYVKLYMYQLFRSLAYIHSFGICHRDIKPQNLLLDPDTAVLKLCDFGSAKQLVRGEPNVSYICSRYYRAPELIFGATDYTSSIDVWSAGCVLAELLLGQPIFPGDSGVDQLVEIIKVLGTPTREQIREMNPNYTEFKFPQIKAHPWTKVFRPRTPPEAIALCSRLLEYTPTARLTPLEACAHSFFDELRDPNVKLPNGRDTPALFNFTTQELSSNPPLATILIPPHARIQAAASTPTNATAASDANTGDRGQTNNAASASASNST
binder,measurement,value
B1,"percent decrease of the interaction with GSK3β (of β-catenin, by the legend) at TGase 2:GSK3β plasmid ratio 1:1",52%
same,"percent decrease of the interaction with GSK3β (of β-catenin, by the legend) at TGase 2:GSK3β plasmid ratio 1:2",45%
